# Laboratory results taken from patent US20260242448A1.
# Columns and labels:
# [1] = biological target: S protein of the SARS-CoV-2 BA.4/5 strains on pseudo-virus (SARS-CoV-2 BA.4/5 strain); experiment: cell-based or functional assay
# [2] = biological target: S protein of the SARS-CoV-2 XBB.1.5 strain on pseudo-virus (SARS-CoV-2 XBB.1.5 strain); experiment: cell-based or functional assay
# [3] = biological target: S protein of the SARS-CoV-2 BQ.1.1 strain on pseudo-virus (SARS-CoV-2 BQ.1.1 strain); experiment: cell-based or functional assay
# [4] = biological target: S protein of the SARS-CoV-2 BQ.1 strain on pseudo-virus (SARS-CoV-2 BQ.1 strain); experiment: cell-based or functional assay
# [5] = biological target: S protein of the SARS-CoV-2 Delta strain on pseudo-virus (SARS-CoV-2 Delta strain); experiment: cell-based or functional assay
# [6] = biological target: S protein of the SARS-CoV-2 BA.1 strain on pseudo-virus (SARS-CoV-2 BA.1 strain); experiment: cell-based or functional assay
# [7] = biological target: S protein of the SARS-CoV-2 BA.2.75 strain on pseudo-virus (SARS-CoV-2 BA.2.75 strain); experiment: cell-based or functional assay
# [8] = biological target: S protein of the SARS-CoV-2 XBB strain on pseudo-virus (SARS-CoV-2 XBB strain); experiment: cell-based or functional assay
# [9] = biological target: S protein of the SARS-CoV-2 BF.7 strain on pseudo-virus (SARS-CoV-2 BF.7 strain); experiment: cell-based or functional assay
# [10] = biological target: SARS-CoV-2 (BF.7) Spike RBD (SARS-CoV-2 BF.7 strain); experiment: ELISA on plate-coated RBD (1 µg/mL), HRP anti-human Fc detection, OD450
# [11] = biological target: SARS-CoV-2 (BF.7) Spike RBD (SARS-CoV-2 BF.7 strain); experiment: SPR, Biacore 8K; antibody captured on Protein A chip, RBD as analyte
# [12] = biological target: SARS-CoV-2 (BA.5) Spike RBD (SARS-CoV-2 BA.5 strain); experiment: as above
# Sequence of LY-CoV1404 (antibody) (VH): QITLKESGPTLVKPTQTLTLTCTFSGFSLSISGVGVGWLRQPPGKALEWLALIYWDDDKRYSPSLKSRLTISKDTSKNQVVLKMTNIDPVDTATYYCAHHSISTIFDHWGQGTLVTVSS
# Sequence of LY-CoV1404 (antibody) (VL): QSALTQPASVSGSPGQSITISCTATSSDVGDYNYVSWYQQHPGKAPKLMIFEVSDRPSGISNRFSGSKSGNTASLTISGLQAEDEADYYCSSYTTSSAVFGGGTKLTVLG
substance,measurement,setting,value
LY-CoV1404 (antibody),Neutralization activity (IC50) against pseudo-virus,[1],1.22 ng/mL
same,Neutralization activity (IC50) against pseudo-virus,[2],> 2000 ng/mL
same,Neutralization activity (IC50) against pseudo-virus,[3],> 2000 ng/mL
same,Neutralization activity (IC50) against pseudo-virus,[4],> 2000 ng/mL
same,Neutralization activity (IC50) against pseudo-virus,[5],3.05 ng/mL
same,Neutralization activity (IC50) against pseudo-virus,[6],1.44 ng/mL
same,Neutralization activity (IC50) against pseudo-virus,[7],25.1 ng/mL
same,Neutralization activity (IC50) against pseudo-virus,[8],> 2000 ng/mL
same,Neutralization activity (IC50) against pseudo-virus,[9],2.14 ng/mL
same,EC50,[10],110 pM
same,Kd,[11],162 pM
same,koff,[11],0.000148 s⁻¹
same,kon,[11],910000 M⁻¹ s⁻¹
same,Kd,[12],184 pM
same,koff,[12],0.000264 s⁻¹
same,kon,[12],1.44e+06 M⁻¹ s⁻¹
